B1: palivizumab (v21995), anti-RSV antibody, negative control (antibody, human IgG1, kappa, V domains shown)
VH: QVTLRESGPALVKPTQTLTLTCTFSGFSLSTSGMSVGWIRQPPGKALEWLADIWWDDKKDYNPSLKSRLTISKDTSKNQVVLKVTNMDPADTATYYCARSMITNWYFDVWGAGTTVTVSS
VL: DIQMTQSPSTLSASVGDRVTITCKSQLSVGYMHWYQQKPGKAPKLLIYDTSKLASGVPSRFSGSGSGTEFTLTISSLQPDDFATYYCFQGSGYPFTFGGGTKLEIKR
B2: lifastuzumab (v18993), reference anti-NaPi2b antibody (antibody, human IgG1, kappa)
heavy 1: GEVQLVESGGGLVQPGGSLRLSCAASGFSFSDFAMSWVRQAPGKGLEWVATIGRVAFHTYYPDSMKGRFTISRDNSKNTLYLQMNSLRAEDTAVYYCARHRGFDVGHFDFWGQGTLVTVSSASTKGPSVFPLAPSSKSTSGGTAALGCLVKDYFPEPVTVSWNSGALTSGVHTFPAVLQSSGLYSLSSVVTVPSSSLGTQTYICNVNHKPSNTKVDKKVEPKSCDKTHTCPPCPAPELLGGPSVFLFPPKPKDTLMISRTPEVTCVVVDVSHEDPEVKFNWYVDGVEVHNAKTKPREEQYNSTYRVVSVLTVLHQDWLNGKEYKCKVSNKALPAPIEKTISKAKGQPREPQVYVYPPSRDELTKNQVSLTCLVKGFYPSDIAVEWESNGQPENNYKTTPPVLDSDGSFALVSKLTVDKSRWQQGNVFSCSVMHEALHNHYTQKSLSLSPG
heavy 2: not shown
light: GDIQMTQSPSSLSASVGDRVTITCRSSETLVHSSGNTYLEWYQQKPGKAPKLLIYRVSNRFSGVPSRFSGSGSGTDFTLTISSLQPEDFATYYCFQGSFNPLTFGQGTKVEIKRTVAAPSVFIFPPSDEQLKSGTASVVCLLNNFYPREAKVQWKVDNALQSGNSQESVTEQDSKDSTYSLSSTLTLSKADYEKHKVYACEVTHQGLSSPVTKSFNRGEC

Columns and labels:
[1] = target: T1, Construct 7 (human NaPi2b del 317-326) (human, UniProt O95436 1-690); experiment: flow cytometry, transfected HEK293-6e cells, antibody 200 nM;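 note: cells incubated with antibody for 24 h at 4 °C, background taken as average MFI of unstained cells without primary antibody, at least 1,000 events per well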
T1 construct: also called CL_#29921
T1 sequence: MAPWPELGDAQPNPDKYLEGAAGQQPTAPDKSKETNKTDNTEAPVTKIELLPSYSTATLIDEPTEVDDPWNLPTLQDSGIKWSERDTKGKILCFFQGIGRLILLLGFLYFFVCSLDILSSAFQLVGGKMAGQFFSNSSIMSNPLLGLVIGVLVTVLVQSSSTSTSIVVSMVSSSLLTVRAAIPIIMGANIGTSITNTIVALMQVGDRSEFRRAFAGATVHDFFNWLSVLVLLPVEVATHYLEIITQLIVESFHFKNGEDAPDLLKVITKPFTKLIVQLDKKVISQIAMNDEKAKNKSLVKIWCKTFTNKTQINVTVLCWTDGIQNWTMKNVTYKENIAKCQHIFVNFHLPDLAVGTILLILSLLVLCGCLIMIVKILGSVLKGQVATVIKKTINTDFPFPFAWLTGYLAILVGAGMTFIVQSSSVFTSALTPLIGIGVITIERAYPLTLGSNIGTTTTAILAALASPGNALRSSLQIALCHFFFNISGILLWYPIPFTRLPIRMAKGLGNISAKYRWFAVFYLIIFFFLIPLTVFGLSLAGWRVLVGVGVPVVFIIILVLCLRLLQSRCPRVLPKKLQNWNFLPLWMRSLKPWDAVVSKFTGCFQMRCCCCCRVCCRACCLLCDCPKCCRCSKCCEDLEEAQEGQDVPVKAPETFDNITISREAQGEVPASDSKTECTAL

[2] = target: T2, Construct 4 (chimeric human NaPi2b, swap in NaPi2c in 341-358) (human); experiment: flow cytometry, transfected HEK293-6e cells, antibody 20 nM
T2 construct: also called CL_#13435

[3] = target: T3, Full length human NaPi2b (sodium-dependent phosphate transporter 2B, SLC34A2) (human, UniProt O95436 1-690); experiment: as above
T3 construct: also called huNaPi2b; CL_#13432
T3 sequence: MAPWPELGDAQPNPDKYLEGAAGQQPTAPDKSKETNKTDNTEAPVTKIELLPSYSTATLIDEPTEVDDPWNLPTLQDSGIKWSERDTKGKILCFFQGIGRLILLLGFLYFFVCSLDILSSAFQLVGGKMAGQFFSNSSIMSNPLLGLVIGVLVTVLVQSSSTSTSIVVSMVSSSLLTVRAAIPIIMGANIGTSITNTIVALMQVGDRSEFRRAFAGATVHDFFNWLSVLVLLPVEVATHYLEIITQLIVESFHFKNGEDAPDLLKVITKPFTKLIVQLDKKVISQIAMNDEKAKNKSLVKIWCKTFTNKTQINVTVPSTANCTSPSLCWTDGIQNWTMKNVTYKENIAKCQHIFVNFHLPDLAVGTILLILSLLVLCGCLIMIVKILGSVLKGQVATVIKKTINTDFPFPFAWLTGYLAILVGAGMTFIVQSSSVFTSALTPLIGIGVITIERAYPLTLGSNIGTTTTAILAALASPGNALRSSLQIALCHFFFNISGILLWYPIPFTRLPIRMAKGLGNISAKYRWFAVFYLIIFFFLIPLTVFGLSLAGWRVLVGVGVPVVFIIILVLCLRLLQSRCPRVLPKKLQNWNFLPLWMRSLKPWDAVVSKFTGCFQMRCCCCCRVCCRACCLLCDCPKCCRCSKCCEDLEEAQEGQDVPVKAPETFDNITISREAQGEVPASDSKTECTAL

[4] = target: T4, Construct 1 (chimeric human NaPi2b, swap in NaPi2c in 239-259) (human); experiment: as above
T4 construct: also called CL_#29914

[5] = target: T5, Construct 2 (chimeric human NaPi2b, swap in NaPi2c in 280-301) (human); experiment: as above
T5 construct: also called CL_#29915

[6] = target: T6, Construct 5 (chimeric human NaPi2b, swap in NaPi2a in 304-348) (human); experiment: as above
T6 construct: also called CL_#13436

Binder	Background-Subtracted AF647 Mean Fluorescence Intensity [1] [MFI]	Background-Subtracted AF647 Mean Fluorescence Intensity [2] [MFI]	Background-Subtracted AF647 Mean Fluorescence Intensity [3] [MFI]	Background-Subtracted AF647 Mean Fluorescence Intensity [4] [MFI]	Background-Subtracted AF647 Mean Fluorescence Intensity [5] [MFI]	Background-Subtracted AF647 Mean Fluorescence Intensity [6] [MFI]
B1	-97	22	13	-27	-64	123
B2	21	1050	1370	1700	1200	52
